Measured values published in IntAct's records for PubMed 24152121.

Legend:
[1] = target: vp26a_mouse Vps26a (UniProt P40336)
[2] = target: vps29_mouse Vps29 (UniProt Q9QZ88)

## Vacuolar protein sorting-associated protein 35 (Homo sapiens) (from UniProt Q96QK1) D620N
[1]
  effect of a mutation on the interaction: with no effect
[2]
  effect of a mutation on the interaction: with no effect
